Measurements from paper PMC4943861 (ACS chemical biology, 2015).

Molecular target: activation loop-phosphorylated ERK2 (Homo sapiens, UniProt P28482)
Assay: In vitro activity assay against activation loop-phosphorylated ERK2
Type: biochemical
Settings: read-out: IC50 against ERK2, triplicate

Sequence of activation loop-phosphorylated ERK2 (P28482 whole entry): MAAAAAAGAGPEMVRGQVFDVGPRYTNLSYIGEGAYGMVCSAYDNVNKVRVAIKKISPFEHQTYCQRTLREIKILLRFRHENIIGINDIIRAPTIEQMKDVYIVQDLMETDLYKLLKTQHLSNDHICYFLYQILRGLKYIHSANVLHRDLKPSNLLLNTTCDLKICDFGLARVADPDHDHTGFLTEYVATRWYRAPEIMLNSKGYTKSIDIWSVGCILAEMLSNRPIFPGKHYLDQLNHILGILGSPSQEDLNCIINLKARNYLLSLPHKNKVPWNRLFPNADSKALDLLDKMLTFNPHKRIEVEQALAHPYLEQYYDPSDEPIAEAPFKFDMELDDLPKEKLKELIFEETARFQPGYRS

Row | IC50 | Molecule
1 | 0.0008 µM | SNAP(pE59)-4: bivalent inhibitor of activation loop-phosphorylated ERK2: SNAP(pE59) labeled with 4 (protein) GPGSDKDCEMKRTTLDSPLGKLELSGCEQGLHEIIFLGKGTSAADAVEVPAPAAVLGGPEPLMQATAWLNAYFHQPEAIEEFPVPALHHPVFQQESFTRQVLWKLLKVVKFGEVISYSHLAALAGNPAATAAVKTALSGNPVPILIPCHRVVQGDLDVGGYEGGLAVKEWLLAHEGHRLGKRDLGKKLLEAARAGQDDEVRILMANGADVNALDEDGLTPLHLAAQLGHLEIVEVLLKYGADVNAEDNFGITPLHLAAIRGHLEIVEVLLKHGADVNAQDKFGKTAFDISIDNGNEDLAEILQKLN
2 | 3.9 µM | SNAPtag-4: monovalent conjugate of 4 to SNAPtag (protein, SNAPtag is engineered) GPGSDKDCEMKRTTLDSPLGKLELSGCEQGLHEIIFLGKGTSAADAVEVPAPAAVLGGPEPLMQATAWLNAYFHQPEAIEEFPVPALHHPVFQQESFTRQVLWKLLKVVKFGEVISYSHLAALAGNPAATAAVKTALSGNPVPILIPCHRVVQGDLDVGGYEGGLAVKEWLLAHEGHRLGKR
